Results from US20240400701A1 (LANOVA MEDICINES DEVELOPMENT, published 2024).
Substitutions are numbered along the chain they refer to.

T1: human AMHRII (anti-Mullerian hormone receptor type 2) (human, UniProt Q16671 18-573)
T1 sequence (looked up): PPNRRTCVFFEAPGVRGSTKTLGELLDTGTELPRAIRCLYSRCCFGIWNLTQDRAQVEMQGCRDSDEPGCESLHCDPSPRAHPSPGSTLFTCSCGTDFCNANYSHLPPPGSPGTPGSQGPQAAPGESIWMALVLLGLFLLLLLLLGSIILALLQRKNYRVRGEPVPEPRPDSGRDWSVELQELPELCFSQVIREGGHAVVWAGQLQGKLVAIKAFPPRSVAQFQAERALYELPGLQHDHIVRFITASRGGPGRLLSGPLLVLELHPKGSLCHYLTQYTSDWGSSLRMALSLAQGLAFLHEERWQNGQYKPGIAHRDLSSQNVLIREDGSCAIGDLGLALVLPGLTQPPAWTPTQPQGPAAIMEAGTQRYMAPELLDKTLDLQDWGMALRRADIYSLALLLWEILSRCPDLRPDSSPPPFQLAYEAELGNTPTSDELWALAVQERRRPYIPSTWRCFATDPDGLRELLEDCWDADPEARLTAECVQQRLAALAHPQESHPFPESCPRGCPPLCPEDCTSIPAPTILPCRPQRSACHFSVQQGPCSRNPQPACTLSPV

B1: xi103C5G10F9 hIgG1 (antibody, V domains shown)
VH: DVQLQESGPGLVKPSQSLSLTCTVTGYSITSDYAWNWIRQFPGNKLEWMGYISYSGSTSYNPSLKSRISITRDTSKNQFFLQLNSVTTEDTATYYCARSRYSWFDYWGQGTLVTVSA
VL: DIVLTQSPTSLAVSLGQRATLSCSASESVDTYGNSFMHWYQQKPGQSPKLLIYRASSLESGIPARFSGSGSRTDFTLTINPVEAADVATYYCQQSNEDPYTFGGGTKLEIK
notes: Murine variable domains in human chimeric format, human IgG1; also called 103C5G10F9 (chimeric)
B2: xi114A2B5 hIgG1 (antibody, V domains shown)
VH: B1 VH
VL: B1 VL with T9A, S24R
notes: Murine variable domains in human chimeric format, human IgG1; also called 114A2B5 (chimeric)
B3: xi94C4C3 hIgG1 (antibody, V domains shown)
VH: B1 VH with T58I
VL: B1 VL with S47P, A64V
notes: Murine variable domains in human chimeric format, human IgG1; also called xi94C4C3 hlgG1; 94C4C3 (chimeric)
B4: xi108F3D1E9 hIgG1 (antibody, V domains shown)
VH: B1 VH with Y33F, S53N, Y54F, R98G, D105A
VL: B1 VL with T9A, L21I, S24R, S47P, S57N, A85D
notes: Murine variable domains in human chimeric format, human IgG1; also called xi108F3D1E9 hlgG1; 108F3D1E9 (chimeric)
B5: xi31D9B3 hIgG1 (antibody, V domains shown)
VH: QVKLLQSGAALVKPGASVKMSCKASGYTFTDYWVSWVKQSHGKSLEWIGEIYPKNGVSNFNEKFKGKATLTVDKSTSTAYMELRRLTSEDSAIFYCTRQRDYWGQGVMVTVSS
VL: DVVLTQTPGSLSVTLGDQASISCRSSQSLEYGDGYTYLEWYLQKPGQSPQLLIYGVSNRFSGVPDRFIGSGSGTDFTLKISRVEPEDLGVYYCFQATHDPNTFGAGTKLELK
notes: Murine variable domains in human chimeric format, human IgG1; also called xi31D9B3 hlgG1; 31D9B3 hlgG1
B6: xi35D4G3 hIgG1 (antibody, V domains shown)
VH: B5 VH with K3R, V18A, K54D, V57I, S58T, S77R, R84S, F94Y
VL: B5 VL with A19V, E30K, I53F, A105T, E110D
notes: Murine variable domains in human chimeric format, human IgG1; also called 35D4G3 (chimeric)
B7: 31D9B3 H4L4 hIgG1 (antibody, V domains shown)
VH: QVQLVQSGAEVVKPGASVKMSCKASGYTFTDYWVSWVKQSPGQGLEWIGEIYPKNGVSNFNEKFKGKATLTVDKSTSTAYMELRRLRSDDTAVFYCTRQRDYWGQGVLVTVSS
VL: B5 VL with T7S, G9L, S12P, D17Q, Q18P, K44R, L88V, L111I
notes: Humanized, human IgG1; also called 31D9B3 H4L4 hlgG1

What follows are binders tested against T1, human AMHRII (anti-Mullerian hormone …) (assay: cell-based or functional assay).

Binder	ADCC reporter bioassay, EC50	ADCC reporter bioassay, Top (MFI)
B1	0.39 nM	13900 MFI
B2	0.34 nM	14100 MFI
B3	0.35 nM	13100 MFI
B4	0.19 nM	13300 MFI
B5	0.27 nM	14400 MFI
B6	0.25 nM	14500 MFI

These binders were tested against T1, human AMHRII (anti-Mullerian hormone …) (assay: FACS on Rko cells over-expressing human AMHR2).
Protocol: (§1) Similarly, the binding of these antibodies was tested with Rko cells that over-expressed AMHR2. 100 μl of 1×10⁶ cells/ml of cells were incubated with the antibodies in 3-fold serial dilutions starting from 300 nM to 0.002 nM for 30 minutes on ice. After being washed with 200 μl of FACS buffer twice, cells were incubated with secondary antibody for 30 minutes on ice. Cells were washed with 200 μl of FACS buffer twice and analyzed by FACS.

Binder	EC50	Top (MFI)
B1	0.43 nM	8580 MFI
B2	0.52 nM	8330 MFI
B3	0.56 nM	8380 MFI
B4	0.47 nM	8190 MFI
B5	0.57 nM	8360 MFI
B6	0.49 nM	8290 MFI

Biological target: T1, human AMHRII (anti-Mullerian hormone …)
Test: FACS on Rko cells over-expressing human AMHR2
Remark: another data set of the same source
Protocol: as §1, with “Rko” for “Similarly, the binding of these antibodies was tested with Rko”, “over-expressing AMHR2 were harvested from flasks.” for “that over-expressed AMHR2.”, “primary PTM” for “the”, “0.001” for “0.002”

Binder	EC50	Top (MFI)
B3	0.627 nM	19000 MFI
B4	0.756 nM	18700 MFI
B5	0.657 nM	18600 MFI

Each binder was assayed against T1, human AMHRII (anti-Mullerian hormone …) (assay: FACS on CHO-K1 cells over-expressing human AMHR2).
Protocol: as §1, with “CHO-K1” for “Similarly, the binding of these antibodies was tested with Rko”, “AMHR2 were harvested from flasks.” for “AMHR2.”, “primary chimeric” for “the”, “antibodies (or with positive reference antibody Ref.Ab)” for “antibodies”

Binder	EC50	Top (MFI)
B1	1.08 nM	124000 MFI
B2	1.04 nM	127000 MFI
B3	1.17 nM	124000 MFI
B4	1.37 nM	124000 MFI
B5	1.16 nM	122000 MFI
B6	0.11 nM	114000 MFI

Biological target: T1, human AMHRII (anti-Mullerian hormone …)
Test: FACS on CHO-K1 cells over-expressing human AMHR2
Remark: another data set of the same source
Protocol: as §1, with “CHO-K1” for “Similarly, the binding of these antibodies was tested with Rko”, “cells” for “cells that”, “AMHR2 were harvested from flasks.” for “AMHR2.”, “the humanized” for “the”, “0.001” for “0.002”

Binder	EC50	Top (MFI)
B3	1.21 nM	54900 MFI

Biological target: T1, human AMHRII (anti-Mullerian hormone …)
Test: FACS on CHO-K1 cells over-expressing human AMHR2
Remark: another data set of the same source
Protocol: as §1, with “CHO-K1” for “Similarly, the binding of these antibodies was tested with Rko”, “cells” for “cells that”, “AMHR2 were harvested from flasks.” for “AMHR2.”, “the humanized” for “the”, “0.001” for “0.002”

Binder	EC50	Top (MFI)
B5	0.88 nM	35200 MFI

Biological target: T1, human AMHRII (anti-Mullerian hormone …)
Test: FACS on CHO-K1 cells over-expressing human AMHR2
Remark: another data set of the same source
Protocol: as §1, with “CHO-K1” for “Similarly, the binding of these antibodies was tested with Rko”, “cells” for “cells that”, “AMHR2 were harvested from flasks.” for “AMHR2.”, “the humanized” for “the”, “0.001” for “0.002”

Binder	EC50	Top (MFI)
B5	0.88 nM	35200 MFI
B7	0.75 nM	37200 MFI

Biological target: T1, human AMHRII (anti-Mullerian hormone …)
Test: FACS on CHO-K1 cells over-expressing human AMHR2
Remark: another data set of the same source
Protocol: as §1, with “CHO-K1” for “Similarly, the binding of these antibodies was tested with Rko”, “cells” for “cells that”, “AMHR2 were harvested from flasks.” for “AMHR2.”, “the humanized” for “the”, “0.001” for “0.002”

Binder	EC50	Top (MFI)
B3	1.21 nM	54900 MFI
B4	1.05 nM	74400 MFI
B5	0.881 nM	26200 MFI

Biological target: T1, human AMHRII (anti-Mullerian hormone …)
Test: FACS on CHO-K1 cells over-expressing human AMHR2
Remark: another data set of the same source
Protocol: as §1, with “CHO-K1” for “Similarly, the binding of these antibodies was tested with Rko”, “cells” for “cells that”, “AMHR2 were harvested from flasks.” for “AMHR2.”, “the humanized” for “the”, “0.001” for “0.002”

Binder	EC50	Top (MFI)
B4	1.05 nM	74400 MFI

Biological target: T1, human AMHRII (anti-Mullerian hormone …)
Test: FACS on CHO-K1 cells over-expressing human AMHR2
Remark: another data set of the same source
Protocol: as §1, with “CHO-K1” for “Similarly, the binding of these antibodies was tested with Rko”, “cells” for “cells that”, “AMHR2 were harvested from flasks.” for “AMHR2.”, “the humanized” for “the”, “0.001” for “0.002”

Binder	EC50	Top (MFI)
B5	0.881 nM	26200 MFI
